Experimental data from article PMC12073449, “Development of a Mechanism of Action-Reflective Cell-Based Reporter Gene Assay for Measuring Bioactivities of Therapeutic Glucagon-like Peptide-2 Analogues” (Molecules, 2025).
Square brackets hold non-standard residues; d marks the D form. Ends that are not written are not given here. Nle = CCCC[C@H](N)C(=O)O

Experiments:
patients with SBS = details: cited from earlier work
Source text: (§1) This truncated form is subsequently degraded by endopeptidases and presumably cleared via renal excretion. […] Consequently, DPP-4 resistant GLP-2 analogues with an extended half-life were developed.

rat = tested on: rat; parameters: method as in PMID 31577440; details: head-to-head preclinical study; cited from earlier work
[1] = parameters: method as in PMID 35933503; details: general statement; cited from earlier work
Source text: The diverse functions of GLP-2 highlight its significance in maintaining intestinal health and physiology. As a naturally occurring gut hormone, GLP-2 not only promotes nutrient absorption by decreasing intestinal motility and permeability, but also plays a pivotal role in stimulating intestinal epithelial cell growth and function. This multifaceted action of GLP-2 is crucial for the maintenance of the intestinal barrier, which is essential for preventing the translocation of harmful bacteria and toxins into the bloodstream.

human GLP-2R [2] = biological target: T1, human GLP-2R (Homo sapiens, UniProt O95838); test: Cell-based reporter gene assay (RGA), HEK293-GLP-2R-Luc, CRE-luciferase; details: for dose-response curve in RGA / concentration–response curve in RGA (specificity): diluted to 2.665 µmol/L and further 7-fold for 10 concentration points, HEK293-GLP-2R-Luc cells; for Mean potency: mean of 8 tests, two analysts
T1 construct: The full-length cDNA of human GLP-2R was synthesized, cloned, and inserted into the pLU.cmv.Zeo vector; expressed in transfected cells
T1 sequence (O95838 1-553): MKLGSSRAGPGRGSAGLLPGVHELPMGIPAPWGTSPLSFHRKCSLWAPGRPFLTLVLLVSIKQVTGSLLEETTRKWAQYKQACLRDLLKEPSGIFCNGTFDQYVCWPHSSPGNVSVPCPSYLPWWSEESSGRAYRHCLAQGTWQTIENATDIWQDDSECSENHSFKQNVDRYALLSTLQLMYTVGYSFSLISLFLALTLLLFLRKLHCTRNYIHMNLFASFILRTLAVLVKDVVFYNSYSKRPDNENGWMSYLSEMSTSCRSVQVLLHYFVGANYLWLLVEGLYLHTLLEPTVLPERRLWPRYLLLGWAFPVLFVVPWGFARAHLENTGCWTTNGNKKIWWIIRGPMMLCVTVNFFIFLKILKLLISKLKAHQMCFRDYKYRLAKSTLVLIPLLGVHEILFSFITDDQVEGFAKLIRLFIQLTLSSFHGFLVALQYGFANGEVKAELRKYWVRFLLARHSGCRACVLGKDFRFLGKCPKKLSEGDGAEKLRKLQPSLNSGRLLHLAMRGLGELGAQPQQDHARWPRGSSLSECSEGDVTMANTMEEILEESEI
Procedure: To generate a HEK293 cell line stably expressing CRE-driven luciferase and GLP2R, the CRE-miniP.Luc virus-containing cell supernatants were diluted in DMEM in the presence of 8 µg/mL polybrene before being added to HEK293 cells. To obtain a stable cell pool, the medium was replaced 48 h after incubation, with fresh culture medium containing 3 µg/mL puromycin. After about 3 weeks selection, the cell pool was then further infected with pLU.cmv-GLP2R.Zeo virus and selected with 200 µg/mL Zeocin and 3 µg/mL puromycin. […] The expression of GLP-2R was examined using flow cytometry. After that, the positive clones were routinely maintained in selective medium.
Cell-based RGA has been described previously. Briefly, 50 microliters of HEK293-GLP-2R-Luc cells were seeded into a 96-well white plate at a density of 4 × 10^4 cells/well. The cells were then incubated at 37 °C with 5% CO2 overnight (16 to 24 h). […] After 5 h of incubation, 100 µL of britelite plus reporter Gene Assay reagent were added to each well and mixed thoroughly under subdued light conditions for 5 min. The RLU signal was then determined with a SpectraMax M5e multimode plate reader (Molecular Devices, San Jose, CA, USA).
The RGA was validated as described previously. […] Samples of each potency level were tested by two analysts 8 times in total. […] The response of HEK293-GLP2R-Luc cells to these samples were determined as illustrated in 4.6.
The lower/upper asymptote was determined by the ratio of the top asymptote to the bottom asymptote when RGA best fit the 4PL model. The correlation coefficient (R^2), deviations from parallelism, and the regression in the 4PL model were estimated using SoftMax® Pro 7.1 software (Molecular Devices, San Jose, CA, USA). Specifically, a linear regression with an R^2 value no less than 0.98 was considered to have a very good fit. Additionally, a p-value below 0.01 was regarded as statistically significant. […] All the dose-response curves were plotted using GraphPad Prism® software 8.0.2 (GraphPad, Boston, MA, USA).

intestinal cells = tested on: intestinal cells; parameters: method as in PMID 32060615; details: cited from earlier work
rat GLP-2R = details: BHK fibroblasts stably transfected with the rat GLP-2R; cited from earlier work
Source text: GLP-2 exerts its effects largely through interaction with the GLP-2 receptor (GLP-2R), which belongs to the class B1 of the G protein-coupled receptors. […] This led to the hypothesis that GLP-2 acts indirectly through a complex network of indirect mediators that induce diverse signaling pathways, which remains poorly understood.

intestinal epithelium = details: rodents; cited from earlier work
Source text: (§2) GLP-2 regulates proliferative and cytoprotective pathways in the intestine. […] Additionally, it couples with the activation of the Ras/MAPK pathway and stimulates DNA synthesis.

[3] = tested on: enteric neurons and glial cells; details: via the PI3K/Akt/mTOR pathway; cited from earlier work
Source text: as §2

[4] = tested on: dipeptidyl peptidase 4 (DPP-4); details: cited from earlier work
Source text: as §1

[5] = Teduglutide content by HPLC after storage at 37 °C; assay type: physicochemical; details: XBridge Peptide BEH C18, 214 nm, peak area ratio to non-treated DS
Procedure: The bioactivities of the treated and non-treated DS were then measured by the RGA. The teduglutide contents were analyzed by HPLC. An XBridge Peptide BEH C18 column (300 A, 5 μm, 4.6 mm × 250 mm) purchased from Waters (Milford, MA, USA) was used with a flow rate of 1.0 mL/min and was detected at 214 nm. The mobile phase was aqueous solution containing 0.1% trifluoroacetic acid and acetonitrile containing 0.1% trifluoroacetic acid. A total of 50 μL DS samples were injected into the column.

human GLP-2R [6] = biological target: T1, human GLP-2R; test: Cell-based reporter gene assay (RGA), HEK293-GLP-2R-Luc, CRE-luciferase; details: incubation time 5 h and 6 h, compared with 4 h; 96-well plate
[7] = Appearance of teduglutide drug substance solution after storage at 37 °C; assay type: physicochemical; details: after incubation for 12 or 14 days at 37 °C

Q: For “HGDGSFSDE[Nle][dF]TILDLLAARDFINWLIQTKITD-NH2 [apraglutide, GLP-2 analogue under development for SBS, synthesized by GenScript]”, which “dependence on PN support” value (patients with SBS; Phase II clinical trials, SBS) is on record?
A: significant reduction in patients’ dependence on PN support

Q: What about the “half-life compared to teduglutide and glepaglutide” value (rat) of the same substance?
A: longer half-life

Q: What about the “intestinotrophic effect compared to teduglutide and glepaglutide” value (rat) of the same substance?
A: greater intestinotrophic effect

Q: And the bioactivity [1]?
A: enhanced bioactivities

Q: And the half-life [1]?
A: extended half-lives

Q: What about the “dose-response curve in RGA” value (human GLP-2R [2]) of the same substance?
A: induced sigmoid curves similar to those induced by teduglutide

Q: For IL-4: 200-04, Thermo Fisher Scientific, which “concentration–response curve in RGA (specificity)” value (from here on “concentration–response curve”) (human GLP-2R [2]) is on record?
A: no dose–dependent response curve was induced

Q: Which “concentration–response curve” value (human GLP-2R [2]) does the source give for IL-6: 200-06, Thermo Fisher Scientific here?
A: no dose–dependent response curve was induced

Q: Which results are given for “HGEGSFSSELSTILDALAARDFINWLIATKITDKKKKKK [elsiglutide, GLP-2 analogue under development, synthesized by GenScript]”?
A: cell proliferation and intestinal cell apoptosis (intestinal cells): increase cell proliferation and reduce intestinal cell apoptosis; bioactivity [1]: enhanced bioactivities; half-life [1]: extended half-lives; dose-response curve in RGA (human GLP-2R [2]): induced sigmoid curves similar to those induced by teduglutide

Q: With “glucose-dependent insulinotropic peptide [GIP]” as the substance, how does the “concentration–response curve” value (human GLP-2R [2]) read?
A: unsuccessfully induced

Q: With Glucagon-like peptide-2 [GLP-2] as the substance, how does the cAMP accumulation (rat GLP-2R) read?
A: dose-dependent cAMP accumulation

Q: And the “growth of the intestinal epithelium” value (intestinal epithelium)?
A: enhances the growth of the intestinal epithelium

Q: And the neuronal differentiation [3]?
A: stimulate neuronal differentiation

Q: What about the “inactivation by DPP-4” value ([4]; excision of the two N-terminal amino acids) of the same substance?
A: rapid inactivation

Q: And the “intestinal absorption, growth and transit in SBS” value (patients with SBS; SBS)?
A: increase intestinal absorption by promoting intestinal growth and delays accelerated gastric emptying, gastrointestinal transit, and hypersecretions

Q: For glucagon-like peptide-1 [GLP-1], which “concentration–response curve” value (human GLP-2R [2]) is on record?
A: unsuccessfully induced

Q: For “His-Gly-Asp-Gly-Ser-Phe-Ser-Asp-Glu-Met-Asn-Thr-Ile-Leu-Asp-Asn-Leu-Ala-Ala-Arg-Asp-Phe-Ile-Asn-Trp-Leu-Ile-Gln-Thr-Lys-Ile-Thr-Asp [teduglutide, [Gly2] hGLP-2 (1–33), first and only GLP-2 analogue approved for medical treatment of short bowel syndrome]”, which teduglutide content ([5]; end of decline with incubation at 37 °C) is on record?
A: 81.6%

Q: And the teduglutide content ([5]; start of decline, 37 °C)?
A: 99.9%

Q: And the “drug response vs incubation time” value (human GLP-2R [6])?
A: stronger response (higher upper asymptote)

Q: And the “precipitation of DS solution” value [7]?
A: develops a clear colloidal precipitate

Q: What about the “intestinal absorption, growth and transit in SBS” value (patients with SBS; SBS) of the same substance?
A: increase intestinal absorption by promoting intestinal growth and delays accelerated gastric emptying, gastrointestinal transit, and hypersecretions

Q: And the “PN requirements and intestinal function” value (patients with SBS; patients with SBS, daily treatment)?
A: significant reduction in PN requirements and an improvement in intestinal function

Q: And the bioactivity [1]?
A: enhanced bioactivities

Q: What about the half-life [1] of the same substance?
A: extended half-lives

Q: What about the “response of five clones” value (human GLP-2R [2]; clones D5, D9, E11, F2, G11) of the same substance?
A: high response

Q: What about the “Mean Ln potency” value (human GLP-2R [2]; expected 50%) of the same substance?
A: −0.659

Q: What about the Mean potency (human GLP-2R [2]; expected 50%) of the same substance?
A: 0.518

Q: What about the “Mean Ln potency” value (human GLP-2R [2]; expected 71%) of the same substance?
A: −0.343

Q: And the Mean potency (human GLP-2R [2]; expected 71%)?
A: 0.711

Q: And the “Mean Ln potency” value (human GLP-2R [2]; expected 100%)?
A: 0.005

Q: And the Mean potency (human GLP-2R [2]; expected 100%)?
A: 1.007

Q: What about the “Mean Ln potency” value (human GLP-2R [2]; expected 141%) of the same substance?
A: 0.372

Q: And the Mean potency (human GLP-2R [2]; expected 141%)?
A: 1.453

Q: And the “Mean Ln potency” value (human GLP-2R [2]; expected 200%)?
A: 0.757

Q: What about the Mean potency (human GLP-2R [2]; expected 200%) of the same substance?
A: 2.140

Q: Which “activity of truncated GLP-2” value ([4]; DPP-4 cleavage product) does the source give for “GLP-2 (3–33): truncated and inactive GLP-2 formed by DPP-4 (DGSFSDEMNTILDNLAARDFINWLIQTKITD; Glucagon-like peptide 2; UniProt P01275 148-178, looked up, fragment)” here?
A: inactive
